Data on 2 substances can be found in paper PMC3166883.

Test [1] concerns the target MART-1/Melan-A (anchor-modified decamer, modified at position 2) peptide on HLA-A*02:01 (human). As to the kind of experiment: SPR.
Test [2] concerns the target MART-1/Melan-A peptide on HLA-A*02:01 (human). Nature of the test: SPR.

In test [1], DMF4 came in with a Kd of 29 µM.

Turning to DMF5, the Kd worked out at 6 µM in test [1] and 40 µM in test [2].
